As usually defined, the stoichiometry N is the number of molecules, sites or subunits per partner or assembly.

Consider one protein from publication PMC5976436, “Structure of a TRPM2 channel in complex with Ca^2+ explains unique gating regulation” (eLife, 2018).

This series deals with the molecule itself. Kind of series: cryo-EM structure; purified nvTRPM2 in Buffer A (20 mM Tris-HCl pH 8.0, 150 mM NaCl, 0.06% digitonin, 1 mM DTT), 5 mg/ml, trace amounts of Ca2+, no ADPR; C4 symmetry.

B1: Nematostella vectensis TRPM2 channel (transient receptor potential melastatin 2) (natural protein, UniProt A7T1N0 1-1551, looked up)
chain: MGKDSFTPLYDGGDSSHVHLNKFGSNQLSQSKKSWIARNFSRRECIRFVPKSHDVSRCKCGRPRERHSQQALESGQGSEEWNVASCTTKHPTNAYGEIDFEGYGGQKRAPYLRMSHDTDANLVITLMLKRWNLEIPNLVISVTGGAKSFVLKPRLREMFRRGLIKAAKTTGAWIITGGTNTGVMKHVGEAVKEQQLMFGSDTQVNVIGIATWGIVDKQSDLISEKNGKYPALYSMEPTPGHQGAMLDPNHSHFFLVDDGTEGKYGVEIGMRSRIEEAIMKVKTDSRSEAGSIGVPVVLLVLEGGPNTVATMYELIKKKVPAVVIDGSGRAASVVGFAYNHTIKRNVDGQTINVIDPQYEDEVRAKVVEVFGAKGADKTYSMIKDVLEDEKMISVYSLDGEISQDIDLAILKALLKANRSSPVAQLNLALAWNRIDLAKSDIFTEEQQWTTETLSAAMLTALLDDKAEFAELFLQNGLSMREFLSLDILCKLYAEVPGNTTIKPLLQKEMGKRQVKTIDMDVVGEVIEELMGDMFESYYRKDGHYFGELASYAEGLVLKNRKSSKDLLANINRIDPLPTPYLDVFLWAVLCNRRELARVLWEAGREPMAAALMASRLLKRMASRAQEDNTITDISSDLYDHARLFEERAVGVLDECFNENETLSQTLLVRELDHYSRMTALELAVSAESQDFIAHTSCQVLLTRLWMGTMAMNTRWWKVLVCLYLPVLIFPIIYFVPDEQHERQAAEREHQKSLNQKSSKVKSHKEKNDAPVVPVYRSKEEKAVSNDEEARVGTENEEEDFQLEDYIPEIREDDSMEVIMRNKKLGFCDRIMHFYSAPFSKFVGNVVGYLAFIFLYAYVVLFNFPRFDPAKTLGGIHPTEIVLYFWVFTILIEEIRQLAAKPPKYIKDKVSVYFSDTWNFVDIFSLTVFIIAIILRFFTNSRIFTASRIILSLDIIFFIVRSLQIFSVNRLLGPKLVMIQKMMQDLAQFIIILAVFTIAYGIALHAVMFPSPGIYARNNTWVTITSVVQYPYWQMYGELFLDEIQGEKPKEFGEVDPDGRWLSPLLLAIYMVFTNILLLNLLIAIFNYTFERVQEDSDKVWKFQRYDLVQEYHSRPVFAPPLVLLGHILIFIRWVWRMCRCGHPPRGSTMKIGLSPAEMEQMDNWEFQAAEMYIHQQQQKNSGTLEERVRALGDRVDCINSQLNRVLDSMSGTRAHALTDGNGLEGGHDSEGRLARMEVELSSNSESLQKILALLQQQPPVKGQAAVPIQLTLLHYKARSSPYPGSTAKRFAVQDNMVDWQVPFPDYKPVNYTAPVVLANPVWADKDLMAMSPRPELPYNQMDHTCNVNRVSYNGTYVVKDGLPLNPMGRTGMQGRGLLGRFGPNHAADPVVTRWKRTSAGVMLQGGKKVLEFVAIQRKDNNQWAIPGGMVEPGQLVTQALKAEFGEEAMAKLNVSQEEKERIAKQIERLFQQGQEIYKGYVDDPRNTDNAWMETVAVNFHDDKGDLFGDITLQAGDDAAAVRWQRVSGNIPLYASHVSILEKVAKMRDAAF
modifications: two N-acetylglucosamines attached to N1017
notes: TRPM2 of Nematostella vectensis, full-length protein; synthesized gene; the C-terminal NUDT9H domain is residues 1271-1551; model holds residues 6-23, 41-51, 86-546, 573-755, 812-1136 and 1148-1210; the NUDT9H domain is present in the protein but not seen in the map; also called nvTRPM2; not shown: GFP, C-terminal, cleaved
For the protein B1, the “stoichiometry N” value was 4.
